From paper PMC9034974, “Physicochemical characterization of the recombinant lectin scytovirin and microbicidal activity of the SD1 domain produced in rice against HIV-1” (Plant Cell Reports, 2022) come the findings set out here.

Read-outs that look alike come from different tables or passages of the source.

Assay [1] deals with recombinant gp120 used for isothermal titration calorimetry (strain not stated) (HIV-1 (strain not stated)) (UniProt P04578). Briefly: ITC; 102 µM SVN titrated into the cell with 1.6 µM gp120; 30 °C; 10 mM sodium phosphate pH 7.4, 3 mM sodium azide; fitted to one set of identical sites. (In general: ITC needs no label: the signal is the heat of the interaction.)
Assay [2] has the same target. The assay is described as above. This is another data set of the same source.

scytovirin (SVN), full-size, E. coli-produced, sequence (P86041 whole entry): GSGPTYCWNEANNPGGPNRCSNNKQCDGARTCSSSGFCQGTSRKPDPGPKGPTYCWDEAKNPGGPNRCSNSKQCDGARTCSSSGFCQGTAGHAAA

For the substance “scytovirin (SVN), full-size, E. coli-produced (from UniProt P86041 1-95) (natural protein)”, in assay [1], the Kd (as a rule, the equilibrium constant for the complex coming apart) turned out to be 1630 nM; the dH is -6.45 kcal/mol; the stoichiometry N (SVN per gp120) was found to be 5. Also, the Kd in assay [2] worked out at 1500 nM.
